Sequences and labels used below:
B1: POU domain, class 3, transcription factor 3, residues 408 to 463; numbered along this chain, P20264 (parent)
chain: KKRTSIEVSVKGALESHFLKCPKPSAQEITNLADSLQLEKEVVRVWFCNRRQKEKR
B2: Transcription factor SOX-4, residues 60 to 127; numbered along this chain, Q06945 (parent)
chain: KRPMNAFMVWSQIERRKIMEQSPDMHNAEISKRLGKRWKLLKDSDKIPFIREAERLRLKHMADYPDYK

± gives the uncertainty stated by the source.

One data set covers variants of B1. The data set can be described thus: abundance fitness (aPCA) (normalised: wild type 0, dead -1); higher = more abundant; growth selection in yeast, the domain comes from the species named. As to conditions: Homo sapiens.
In the case of K1V, the abundance fitness was -0.092 ± 0.33.

Turning to K1N, the abundance fitness was -0.072 ± 0.2.

For V45T, the abundance fitness is -0.028 ± 0.097.

For V45C, the abundance fitness was -0.177 ± 0.09.

For the variant L32V, the abundance fitness is -0.245 ± 0.067.

As to L32R, the abundance fitness was -0.758 ± 0.091.

Turning to L32N, the abundance fitness is -0.897 ± 0.19.

Turning to L32K, the abundance fitness is -1.06 ± 0.2.

Turning to L32C, the abundance fitness was -1.07 ± 0.41.

With E39I, the abundance fitness is -0.919 ± 0.17.

Regarding E39H, the abundance fitness was -0.224 ± 0.13.

As to E39K, the abundance fitness was -0.258 ± 0.092.

Regarding E39W, the abundance fitness was -0.89 ± 0.12.

Variants of B2 are the subject of the next data set. The description is as above. As to conditions: Homo sapiens.
Regarding D63V, the abundance fitness is -0.224 ± 0.038.

In the case of P65S, the abundance fitness turned out to be 0.102 ± 0.062.

On to K17C, for which the abundance fitness was -0.857 ± 0.18.

Turning to K17F, the abundance fitness is -0.353 ± 0.15.

As for P23V, the abundance fitness was -0.634 ± 0.06.

For K68E, the abundance fitness was -0.155 ± 0.11.

With E54C, the abundance fitness was -0.425 ± 0.049.

Turning to E54Q, the abundance fitness is -0.071 ± 0.062.

Consider R16F, for which the abundance fitness is -0.368 ± 0.055.

For S11Y, the abundance fitness is -0.29 ± 0.048.

Take S11L: the abundance fitness is -0.432 ± 0.045.

Regarding I50E, the abundance fitness was 0.009 ± 0.081.

Consider I50G, for which the abundance fitness is -0.309 ± 0.07.

As to I50L, the abundance fitness was -0.194 ± 0.082.

For the variant K39I, the abundance fitness was -0.384 ± 0.037.

Turning to K39M, the abundance fitness is -0.144 ± 0.036.

As to K39C, the abundance fitness is -0.329 ± 0.044.

With H60P, the abundance fitness was -0.045 ± 0.079.

Take H60I: the abundance fitness is -0.408 ± 0.2.

As for R33Y, the abundance fitness is -0.218 ± 0.16.

On to L40Q, for which the abundance fitness was determined as 0.011 ± 0.071.

As for I30S, the abundance fitness was -0.858 ± 0.071.

Consider I30W, for which the abundance fitness is -0.875 ± 0.089.

Regarding K32T, the abundance fitness was -0.12 ± 0.053.

In the case of K32W, the abundance fitness is -0.243 ± 0.049.

As to L34F, the abundance fitness is -0.724 ± 0.18.

As to L34P, the abundance fitness is -0.955 ± 0.2.

As for L34E, the abundance fitness is -0.639 ± 0.27.

With R55A, the abundance fitness is -0.103 ± 0.053.

Regarding R55S, the abundance fitness is -0.309 ± 0.045.

R55H: the abundance fitness is -0.284 ± 0.073.

As to R55M, the abundance fitness is -0.2 ± 0.091.

Take R55N: the abundance fitness is -0.22 ± 0.07.

For the variant R55E, the abundance fitness is -0.333 ± 0.076.

Regarding D66E, the abundance fitness came to 0.102 ± 0.085.

Consider D66A, for which the abundance fitness is -0.186 ± 0.066.

In the case of D66R, the abundance fitness is 0.015 ± 0.078.

D66W: the abundance fitness was -0.325 ± 0.13.

K46A: the abundance fitness was -0.937 ± 0.13.

In the case of P3H, the abundance fitness is -0.055 ± 0.064.

For P3Y, the abundance fitness is -0.182 ± 0.042.

As for P3N, the abundance fitness was -0.108 ± 0.049.

Consider P3L, for which the abundance fitness was -0.216 ± 0.053.

S31T: the abundance fitness came out at 0.047 ± 0.052.

As for S31G, the abundance fitness was -0.189 ± 0.03.

As to S31D, the abundance fitness is 0.154 ± 0.04.

As for V9I, the abundance fitness came out at 0.066 ± 0.057.

Consider G35A, for which the abundance fitness was determined as 0.171 ± 0.048.

Regarding G35R, the abundance fitness was found to be 0.19 ± 0.037.

Take G35H: the abundance fitness turned out to be 0.178 ± 0.051.

With G35D, the abundance fitness amounted to 0.116 ± 0.05.

On to G35C, for which the abundance fitness was determined as 0.095 ± 0.045.

Take G35K: the abundance fitness is 0.262 ± 0.083.

With G35N, the abundance fitness was determined as 0.015 ± 0.056.

Turning to S44F, the abundance fitness was -0.442 ± 0.13.

As to S44A, the abundance fitness was found to be 0.035 ± 0.053.

As for M19V, the abundance fitness is -0.091 ± 0.046.

In the case of M19G, the abundance fitness was -0.452 ± 0.053.

Take M19F: the abundance fitness was -0.257 ± 0.054.

In the case of M19N, the abundance fitness was -0.396 ± 0.057.

On to Q21A, for which the abundance fitness was -0.169 ± 0.065.

L58K: the abundance fitness was -0.07 ± 0.046.

As for L58G, the abundance fitness worked out at 0.015 ± 0.034.

For the variant I18C, the abundance fitness is -0.278 ± 0.45.

In the case of I18Y, the abundance fitness was -0.285 ± 0.21.

For the variant I18A, the abundance fitness is -0.484 ± 0.21.

For I18T, the abundance fitness was -0.701 ± 0.22.

As for I18F, the abundance fitness is -0.351 ± 0.15.

On to E29D, for which the abundance fitness was -0.074 ± 0.062.

In the case of Q12R, the abundance fitness is -0.267 ± 0.042.

On to Q12Y, for which the abundance fitness is -0.343 ± 0.17.

In the case of R37M, the abundance fitness was -0.067 ± 0.13.

For the variant R37K, the abundance fitness turned out to be 0.052 ± 0.078.

Consider Y64M, for which the abundance fitness is -0.061 ± 0.078.

In the case of Y64R, the abundance fitness was 0.035 ± 0.068.

With Y64F, the abundance fitness was -0.156 ± 0.094.

For the variant A62G, the abundance fitness is -0.017 ± 0.038.

With D43W, the abundance fitness is -0.106 ± 0.043.

In the case of D43Q, the abundance fitness is -0.337 ± 0.069.

Regarding D43M, the abundance fitness is -0.062 ± 0.056.

For R57E, the abundance fitness was -0.111 ± 0.066.

For the variant R57Q, the abundance fitness is -0.206 ± 0.1.

As for R57C, the abundance fitness was -0.048 ± 0.13.

With K1L, the abundance fitness is -0.347 ± 0.21.

Regarding K1C, the abundance fitness is -0.206 ± 0.095.

Take K1P: the abundance fitness is -0.549 ± 0.3.

For K1M, the abundance fitness is -0.214 ± 0.15.

As for M25D, the abundance fitness is -0.397 ± 0.091.

Take M25I: the abundance fitness was 0.004 ± 0.4.

Turning to E20T, the abundance fitness is -0.296 ± 0.073.

For the variant E20Y, the abundance fitness is -0.88 ± 0.33.

Regarding E20S, the abundance fitness is -0.497 ± 0.12.

On to R2H, for which the abundance fitness was -0.305 ± 0.19.

In the case of R2A, the abundance fitness is -0.08 ± 0.093.

For N5S, the abundance fitness came out at 0.016 ± 0.065.

Regarding N5L, the abundance fitness is -0.589 ± 0.095.

In the case of N5M, the abundance fitness was -0.842 ± 0.13.

With N5K, the abundance fitness is -0.553 ± 0.11.

Take S22G: the abundance fitness is -0.4 ± 0.041.

S22V: the abundance fitness is -0.272 ± 0.042.

For M4T, the abundance fitness is -0.077 ± 0.065.

Turning to M4S, the abundance fitness is -0.492 ± 0.085.

Regarding M4I, the abundance fitness is 0.047 ± 0.07.

Regarding M8I, the abundance fitness is -0.181 ± 0.044.

Take M8V: the abundance fitness is -0.178 ± 0.048.

As for M8L, the abundance fitness was -0.084 ± 0.043.

Take N27G: the abundance fitness is -0.103 ± 0.033.

N27T: the abundance fitness was -0.049 ± 0.051.

As to N27V, the abundance fitness is -0.07 ± 0.041.

With N27M, the abundance fitness is -0.043 ± 0.054.

Take I47Y: the abundance fitness is -0.224 ± 0.054.

Regarding D24R, the abundance fitness is -0.307 ± 0.044.

Turning to H26Q, the abundance fitness is 0.111 ± 0.1.

As to H26S, the abundance fitness came to 0.291 ± 0.075.

Take H26A: the abundance fitness was 0.113 ± 0.07.

On to M61K, for which the abundance fitness was determined as 0.003 ± 0.089.

As to D45C, the abundance fitness was -0.758 ± 0.25.

Take D45S: the abundance fitness was -0.431 ± 0.089.

Take K59G: the abundance fitness was -0.045 ± 0.038.

Take K59V: the abundance fitness is -0.086 ± 0.038.

With K59Y, the abundance fitness was -0.277 ± 0.053.

Consider K59R, for which the abundance fitness was -0.126 ± 0.035.

With K59D, the abundance fitness is -0.13 ± 0.054.

Turning to K59L, the abundance fitness amounted to 0.02 ± 0.044.

Regarding F49L, the abundance fitness was -0.598 ± 0.065.

Take F49T: the abundance fitness was -0.623 ± 0.13.

Take Y67N: the abundance fitness amounted to 0.034 ± 0.15.

As to Y67L, the abundance fitness was -0.022 ± 0.046.

For the variant Y67P, the abundance fitness is -0.057 ± 0.088.

With A28Q, the abundance fitness was -0.145 ± 0.076.

Regarding A28C, the abundance fitness was -0.351 ± 0.15.

On to A28R, for which the abundance fitness was -0.132 ± 0.052.

As for W10L, the abundance fitness is -0.999 ± 0.12.

As to W10R, the abundance fitness was -0.649 ± 0.093.

With K36I, the abundance fitness came out at 0.143 ± 0.36.

In the case of K36S, the abundance fitness was -0.098 ± 0.11.

For K36E, the abundance fitness came out at 0.325 ± 0.071.

As to A53C, the abundance fitness was -0.824 ± 0.27.

For A53I, the abundance fitness is -0.662 ± 0.23.

In the case of K42V, the abundance fitness was -0.372 ± 0.074.

Regarding P48T, the abundance fitness was -0.346 ± 0.071.

In the case of P48D, the abundance fitness was -0.469 ± 0.077.

Regarding P48S, the abundance fitness is -0.453 ± 0.057.

As to W38E, the abundance fitness was -0.799 ± 0.1.

Regarding W38L, the abundance fitness was -0.989 ± 0.096.

As to W38F, the abundance fitness was -1.08 ± 0.16.

Take A6F: the abundance fitness was -0.671 ± 0.095.

A6D: the abundance fitness was -0.607 ± 0.076.

Consider A6P, for which the abundance fitness is -0.111 ± 0.092.

With E52N, the abundance fitness is -0.893 ± 0.19.

For the variant E52M, the abundance fitness is -0.394 ± 0.071.

As to E52C, the abundance fitness was -0.353 ± 0.11.

Regarding R15E, the abundance fitness is -0.354 ± 0.079.

Regarding R15I, the abundance fitness was -0.25 ± 0.057.

The values are drawn from the Human Domainome abundance scans (Beltran et al. 2025).
